Data as given in patent US20110244493A1 (COMMONWEALTH MEDICAL COLLEGE, published 2011).

Target: T1, cytoskeletal associated protein 4 (CKAP4), endogenous in HeLa or normal bladder epithelial cells (Homo sapiens, UniProt Q07065 1-602, reversibly palmitoylated on cysteine 100)
T1 sequence: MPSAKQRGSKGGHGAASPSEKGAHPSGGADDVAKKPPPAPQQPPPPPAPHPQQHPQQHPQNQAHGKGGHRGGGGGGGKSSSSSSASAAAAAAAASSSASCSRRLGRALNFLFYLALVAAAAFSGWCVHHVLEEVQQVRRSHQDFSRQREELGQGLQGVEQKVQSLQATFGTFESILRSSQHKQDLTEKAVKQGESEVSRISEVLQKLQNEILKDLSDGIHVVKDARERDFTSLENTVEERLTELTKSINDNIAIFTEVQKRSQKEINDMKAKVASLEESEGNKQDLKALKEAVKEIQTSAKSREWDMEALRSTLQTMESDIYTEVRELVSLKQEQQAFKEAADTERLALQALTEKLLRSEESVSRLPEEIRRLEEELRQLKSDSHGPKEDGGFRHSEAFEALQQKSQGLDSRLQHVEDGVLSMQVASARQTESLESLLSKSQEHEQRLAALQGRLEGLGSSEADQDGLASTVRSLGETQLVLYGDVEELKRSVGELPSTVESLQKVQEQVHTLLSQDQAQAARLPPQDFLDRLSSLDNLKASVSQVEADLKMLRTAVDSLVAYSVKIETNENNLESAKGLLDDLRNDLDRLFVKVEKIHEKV
Test: cell-based or functional assay

abundance of CKAP4 in the nucleus (nuclear fractionation and Western blot, HeLa cells): 5 fold
B1: antiproliferative factor (APF), synthetic (peptide)
peptide: TVPAAVVVA
modifications: sialic acid α-2,3 linked to galactose P1-3-N-acetylgalactosamine, which is α-O-linked to the N-terminal threonine residue of the nonapeptide (printed as '3 carbohydrate moieties-T-V-P-A-A-V-V-V-A')
